Legend:
[1] = target: p66 subunit of HIV-1 reverse transcriptase, expressed in trans with Met-Gly on the N-terminus (HIV-1 (pSG3)); test: cell-based or functional assay
[2] = target: p66^W410A subunit of HIV-1 reverse transcriptase, expressed in trans (HIV-1 (pSG3)); test: cell-based or functional assay
[3] = target: p66^W410L subunit of HIV-1 reverse transcriptase, expressed in trans (HIV-1 (pSG3)); test: cell-based or functional assay
[4] = tested on: M7 virions complemented with wildtype trans-RT (Vpr-p51/p66); test: Inhibition of trans-RT using NRTI and NNRTI, TZM-b1 reporter cell infectivity assay; assay type: cell-based, HIV-1; conditions: for antiviral effect, inhibition of infectivity: TZM-b1 indicator cells, 3TC 0.04, 0.2 and 1.0 μM, nevirapine 1.0, 5.0 and 5.0 μM as printed
Protocol: Virions derived by cotransfection with M7, vpr-p51/p66 and vpr-IN were used to infect the TZM-b1 reporter cell line. The two RT drugs, 3TC and nevirapine, were analyzed at concentrations of 0.04-1.0 μM for 3TC and 1.0-25.0 μM for nevirapine as described in Example 1. The results are expressed as a percentage of untreated virus.
The trans-heterodimer assay is of clinical relevance for analyzing HIV-1 RT inhibitors, drug resistance and the effects of drug resistance mutations on viral fitness. To examine the response of the trans-heterodimeric RT to anti-RT drugs, transfection-derived M7 virions complemented with wildtype trans-RT (Vpr-p51/p66) were used to infect the TZM-b1 indicator cells in the absence or presence of either 3TC (0.04, 0.2 and 1.0 μM) or nevirapine ([…]).
Virions were derived by cotransfection of 293T cells with M7, vpr-p51/p66 and vpr-IN. The TZM-b1 cells were seeded overnight in 24-well plates at a concentration of 40,000 cells in 250 μl of medium per well. The culture medium was removed and replaced with 250 μl of DMEM containing 1% FBS and 2× drug concentrations (5-fold dilutions). 250 μl of virus suspension normalized for equal IU, as determined by TZM-b1 assay (diluted in DMEM containing 1% FBS and 80 μg/ml DEAE-dextran), was then added to the cells. The two RT drugs used in this analysis, 3TC and nevirapine, were at final concentrations ranging from 0.04-1.0 μM and 1.0-25.0 μM, respectively. The cells were fixed 48 h post-infection, stained with X-gal reagent, and the blue-stained cells were counted using a light microscope as described above. The 50% inhibition concentration (IC50) was measured with a 95% confidence interval.

[5] = target: p66^W401A subunit of HIV-1 reverse transcriptase, expressed in trans (HIV-1 (pSG3)); test: cell-based or functional assay
[6] = target: p66^L234A subunit of HIV-1 reverse transcriptase, expressed in trans (HIV-1 (pSG3)); test: cell-based or functional assay
[7] = tested on: HIV-1 NL4-3 with L234A, W398A, W401A and YMAA mutations; test: Infectivity of HIV-1 NL4-3 proviral clones with RT mutations, with efavirenz (FIG. 23); conditions: NL4-3 proviral clones with RT mutation, transfected into 293T cells
Protocol: Additional analysis of the W401A and W410A mutations was conducted in the context of the complete HIV-1 NL4-3 proviral clone. […] The non-infectious RT-minus M7 clone was included as negative control (lane 2). […] Probing a replica blot with mAb to CA confirmed that approximately the same amount of each virus was analyzed (FIG. 13C).

[8] = target: T1, p51W401A/p66W401A trans-heterodimeric RT (Human immunodeficiency virus type 1 group M subtype B, UniProt P04585, W988A); test: Effects of NNRTIs on trans-RT subunit interaction: immunoblot of virion-associated p66 from transfected 293T cells; assay type: cell-based, HIV-1; conditions: p51 W401A/p66 W401A RT mutants, FIG. 22
T1 construct: expressed in transfected cells; host or cells: 293T
Protocol: The dimerization enhancing NNRTI EFV was added to the culture medium 12 h after DNA transfection at concentrations ranging from 0.01-1.0 μM. The transfection-derived virions were collected 48 hours later and analyzed by immunoblot using mAbs to (A) RNase H and (B) CA.
At 24 h post-transfection, the specified concentrations of drug were added. […] The clarified supernatants were processed for and analyzed by immunoblot as described below.
Transfection-derived virions were concentrated by ultracentrifugation through 20% sucrose cushion (125,000×g, 2 hr, 4° C.) using a SW41 rotor (Beckman Inc.). […] The blocked blots were exposed to an appropriate primary antibody for 1 h in blocking buffer with constant mixing. After extension washing, bound antibodies were detected by chemiluminescence using horseradish peroxidase-conjugated species-specific secondary antibodies (Southern Biotechnology Associates, Inc.).

Vpr-p51^W406A fusion protein
virus infectivity, TZM-b1 reporter cells, percentage of wildtype trans-RT heterodimer [1]: < 50%

Vpr-p51^Y405A fusion protein
virus infectivity, TZM-b1 reporter cells, percentage of wildtype trans heterodimer [2]: 25% | virus infectivity, TZM-b1 reporter cells, percentage of wildtype trans-RT heterodimer [1]: 50%

Vpr-p51^W414A fusion protein
virus infectivity, TZM-b1 reporter cells, percentage of wildtype trans-RT heterodimer [1]: < 50%

Vpr-p51^W401L fusion protein
virus infectivity, TZM-b1 reporter cells, percentage of wildtype trans heterodimer [2]: 40%

Vpr-p51^W402A fusion protein
virus infectivity, TZM-b1 reporter cells, percentage of wildtype trans-RT heterodimer [1]: < 50%

Vpr-p51^N363A fusion protein
virus infectivity, TZM-b1 reporter cells, percentage of wildtype trans heterodimer [2]: 35%

Vpr-p51^W401A fusion protein
virus infectivity, TZM-b1 reporter cells, percentage of wildtype trans heterodimer [2]: 40% | virus infectivity, TZM-b1 reporter cells, percentage of wildtype trans heterodimer [3]: 40%

Nc1ccn([C@@H]2CS[C@H](CO)O2)c(=O)n1 [3TC]
antiviral effect, inhibition of infectivity [4]: potent, dosage-dependent antiviral effect

Vpr-p51 fusion protein, wildtype, modified construct with 135 bps of PR sequence (45 amino acids) between Vpr and RT
virus infectivity, JLTRG-R5 reporter T cell line (EGFP), percentage of wildtype trans-RT [5]: 50% | virus infectivity, TZM-b1 reporter cells, percentage of wildtype trans heterodimer [5]: 40% | virus infectivity, TZM-b1 reporter cells, percentage of wildtype trans-RT [5]: 40% | virus infectivity, TZM-b1 reporter cells, percentage of wildtype trans heterodimer [6]: < 5%

O=C1Nc2ccc(Cl)cc2[C@@](C#CC2CC2)(C(F)(F)F)O1 [efavirenz]
rescue of infectivity of mutant virus [7]: not rescued

Vpr-p51^N363A;Y405A fusion protein
virus infectivity, TZM-b1 reporter cells, percentage of wildtype trans heterodimer [1]: 35%

Cc1ccnc2c1NC(=O)c1cccnc1N2C1CC1 [nevirapine]
IC50 ([4]; Human immunodeficiency virus 1, TZM-b1, 48 h, read-out: IC50, inhibition of infectivity): 11 nM | antiviral effect, inhibition of infectivity [4]: potent, dosage-dependent antiviral effect

2′,5′-bis-O-(tert-butyldimethylsilyl)-beta-D-ribofuranosyl 3′-spiro-5″-(4″-amino-1″,2″-oxathiole 2″,2″-dioxide) [TSAO]
RT heterodimerization, destabilization [8]: can destabilize HIV-1 RT heterodimerization

Vpr-p51^W398A fusion protein
virus infectivity, TZM-b1 reporter cells, percentage of wildtype trans-RT heterodimer [1]: < 50%
